Assay results taken from the Immune Epitope Database (IEDB).

Key:
HLA-B*58:01 = assay: IEDB peptide-MHC binding, purified MHC/direct/fluorescence; filed as Kd, often an IC50 or EC50 that approximates it; ≥ and ≤ were set here for values at or beyond the usual limits of such assays; settings: source organism: Marburg virus - Musoke, Kenya, 1980
HLA-A*11:01 = assay: as above; settings: source organism: Marburg virus - Musoke, Kenya, 1980
HLA-B*27:05 = assay: as above; settings: source organism: Marburg virus - Musoke, Kenya, 1980
HLA-B*73:01 = assay: as above; settings: source organism: Marburg virus - Musoke, Kenya, 1980
HLA-B*08:02 = assay: as above; settings: source organism: Orthomarburgvirus marburgense
HLA-B*27:02 = assay: as above; settings: source organism: Orthomarburgvirus marburgense
HLA-A*01:01 = assay: as above; settings: source organism: Marburg virus - Musoke, Kenya, 1980
HLA-B*57:01 = assay: as above; settings: source organism: Marburg virus - Musoke, Kenya, 1980
HLA-A*02:01 = assay: as above; settings: source organism: Marburg virus - Musoke, Kenya, 1980
HLA-B*48:01 = assay: as above; settings: source organism: Marburg virus - Musoke, Kenya, 1980
HLA-A*31:01 = assay: as above; settings: source organism: Marburg virus - Musoke, Kenya, 1980
HLA-B*18:01 = assay: as above; settings: source organism: Marburg virus - Musoke, Kenya, 1980
HLA-A*68:02 = assay: as above; settings: source organism: Marburg virus - Musoke, Kenya, 1980
HLA-B*07:02 = assay: as above; settings: source organism: Marburg virus - Musoke, Kenya, 1980
HLA-B*15:17 = assay: as above; settings: source organism: Marburg virus - Musoke, Kenya, 1980
HLA-B*15:01 [1] = assay: as above; settings: source organism: Marburg virus - Musoke, Kenya, 1980
HLA-B*15:09 = assay: as above; settings: source organism: Orthomarburgvirus marburgense
HLA-A*02:06 = assay: IEDB peptide-MHC binding, purified MHC/competitive/fluorescence; filed as Kd, often an IC50 or EC50 that approximates it; ≥ and ≤ were set here for values at or beyond the usual limits of such assays; settings: source organism: Orthomarburgvirus marburgense
HLA-A*26:02 = assay: as above; settings: source organism: Orthomarburgvirus marburgense
HLA-A*68:23 = assay: as above; settings: source organism: Yersinia pestis Nepal516
HLA-B*45:06 = assay: as above; settings: source organism: Yersinia pestis Nepal516
HLA-B*35:01 = assay: as above; settings: source organism: Yersinia pestis Nepal516
HLA-B*83:01 = assay: as above; settings: source organism: Yersinia pestis Nepal516
HLA-A*32:15 = assay: as above; settings: source organism: Yersinia pestis Nepal516
HLA-B*40:13 = assay: as above; settings: source organism: Yersinia pestis Nepal516
HLA-A*32:07 = assay: as above; settings: source organism: Yersinia pestis Nepal516
HLA-B*15:42 = assay: as above; settings: source organism: Yersinia pestis Nepal516
HLA-B*51:01 = assay: as above; settings: source organism: Yersinia pestis Nepal516
HLA-B*15:01 [2] = assay: as above; settings: source organism: Yersinia pestis Nepal516

For KRLLLKLDF, the Kd (HLA-B*58:01) was ≥ 20 µM, the Kd (HLA-A*11:01) was ≥ 20 µM and the Kd (HLA-B*27:05) was 0.382 µM. The Kd (HLA-B*73:01) was ≥ 20 µM, the Kd (HLA-B*08:02) was ≥ 20 µM and the Kd (HLA-B*27:02) was 12.2 µM. For the same sequence, the Kd (HLA-A*01:01) was ≥ 20 µM, the Kd (HLA-B*57:01) was ≥ 20 µM and the Kd (HLA-A*02:01) was ≥ 20 µM. For the same sequence, the Kd (HLA-B*48:01) was ≥ 20 µM, the Kd (HLA-A*31:01) was ≥ 20 µM and the Kd (HLA-B*18:01) was ≥ 20 µM. The Kd (HLA-A*68:02) was ≥ 20 µM, the Kd (HLA-B*07:02) was ≥ 20 µM and the Kd (HLA-B*15:17) was ≥ 20 µM. The Kd (HLA-B*15:01 [1]) was ≥ 20 µM, the Kd (HLA-B*15:09) was ≥ 20 µM and the Kd (HLA-A*02:06) was 3.93 µM. For the same sequence, the Kd (HLA-A*26:02) was ≥ 20 µM.
With MPFAWQFGF the Kd (HLA-A*68:23) was 0.0027 µM, the Kd (HLA-B*45:06) was ≥ 5 µM and the Kd (HLA-B*35:01) was ≤ 0.0001 µM. For the same sequence, the Kd (HLA-B*83:01) was 0.0297 µM, the Kd (HLA-A*32:15) was 0.0032 µM and the Kd (HLA-B*40:13) was 0.232 µM. For the same sequence, the Kd (HLA-A*32:07) was 0.0056 µM, the Kd (HLA-B*15:42) was ≥ 5 µM and the Kd (HLA-B*51:01) was 0.669 µM. The Kd (HLA-B*15:01 [2]) was ≥ 20 µM.
